One data set deals with T1, HpxO (Klebsiella pneumoniae, UniProt A6T923).
T1 sequence (A6T923 1-384): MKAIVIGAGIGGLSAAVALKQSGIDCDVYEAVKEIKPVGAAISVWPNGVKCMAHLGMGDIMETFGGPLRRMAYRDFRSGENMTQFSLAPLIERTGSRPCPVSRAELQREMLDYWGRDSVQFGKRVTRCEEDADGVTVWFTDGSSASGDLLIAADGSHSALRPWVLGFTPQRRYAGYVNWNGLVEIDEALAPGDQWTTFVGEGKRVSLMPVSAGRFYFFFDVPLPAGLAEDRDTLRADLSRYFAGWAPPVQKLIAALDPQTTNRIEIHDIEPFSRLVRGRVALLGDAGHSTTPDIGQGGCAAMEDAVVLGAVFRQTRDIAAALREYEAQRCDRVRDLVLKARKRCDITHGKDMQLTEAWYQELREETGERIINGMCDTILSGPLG
The data set is described as follows: steady-state rate against NADPH, no saturation. It is filed as biochemical. To be noted: read-out: Km,NADPH; urate as co-substrate; printed as lower limit.

Substrate in the data set “purified protein”: O=c1[nH]c(=O)c2[nH]c(=O)[nH]c2[nH]1
The data set is described as follows: purified protein. It is filed as biochemical, Klebsiella pneumoniae. To be noted: NADH as co-substrate, saturating (1.5 mM).

The values that follow come from publication PMC2842088 (Biochemistry, 2009).

Regarding `NC(=O)C1=CN([C@@H]2O[C@H](COP(=O)(O)OP(=O)(O)OC[C@H]3O[C@@H](n4cnc5c(N)ncnc54)[C@H](OP(=O)(O)O)[C@@H]3O)[C@@H](O)[C@H]2O)C=CC1` [NADPH], the Km at HpxO is more than 1000 µM.

B1: HpxO (Klebsiella pneumoniae subsp. pneumoniae MGH 78578) (protein)
chain: T1 sequence (A6T923 1-384)
As to B1, in the data set “purified protein”, the Km turned out to be 42 ± 8 µM and the kcat stood at 42 ± 2 s⁻¹.

The Km is the substrate concentration at which the rate is half of its maximum. Usually kcat stands for the maximal rate divided by the concentration of active sites.
